Reference: patent publication US20090305241, “DNA demethylases and uses thereof” (REGENTS OF THE UNIVERSITY OF CALIFORNIA, published 2009)

Target: T1, DME (MBP-Δ537DME, wild-type glycosylase domain) (UniProt Q8LK56)
T1 sequence: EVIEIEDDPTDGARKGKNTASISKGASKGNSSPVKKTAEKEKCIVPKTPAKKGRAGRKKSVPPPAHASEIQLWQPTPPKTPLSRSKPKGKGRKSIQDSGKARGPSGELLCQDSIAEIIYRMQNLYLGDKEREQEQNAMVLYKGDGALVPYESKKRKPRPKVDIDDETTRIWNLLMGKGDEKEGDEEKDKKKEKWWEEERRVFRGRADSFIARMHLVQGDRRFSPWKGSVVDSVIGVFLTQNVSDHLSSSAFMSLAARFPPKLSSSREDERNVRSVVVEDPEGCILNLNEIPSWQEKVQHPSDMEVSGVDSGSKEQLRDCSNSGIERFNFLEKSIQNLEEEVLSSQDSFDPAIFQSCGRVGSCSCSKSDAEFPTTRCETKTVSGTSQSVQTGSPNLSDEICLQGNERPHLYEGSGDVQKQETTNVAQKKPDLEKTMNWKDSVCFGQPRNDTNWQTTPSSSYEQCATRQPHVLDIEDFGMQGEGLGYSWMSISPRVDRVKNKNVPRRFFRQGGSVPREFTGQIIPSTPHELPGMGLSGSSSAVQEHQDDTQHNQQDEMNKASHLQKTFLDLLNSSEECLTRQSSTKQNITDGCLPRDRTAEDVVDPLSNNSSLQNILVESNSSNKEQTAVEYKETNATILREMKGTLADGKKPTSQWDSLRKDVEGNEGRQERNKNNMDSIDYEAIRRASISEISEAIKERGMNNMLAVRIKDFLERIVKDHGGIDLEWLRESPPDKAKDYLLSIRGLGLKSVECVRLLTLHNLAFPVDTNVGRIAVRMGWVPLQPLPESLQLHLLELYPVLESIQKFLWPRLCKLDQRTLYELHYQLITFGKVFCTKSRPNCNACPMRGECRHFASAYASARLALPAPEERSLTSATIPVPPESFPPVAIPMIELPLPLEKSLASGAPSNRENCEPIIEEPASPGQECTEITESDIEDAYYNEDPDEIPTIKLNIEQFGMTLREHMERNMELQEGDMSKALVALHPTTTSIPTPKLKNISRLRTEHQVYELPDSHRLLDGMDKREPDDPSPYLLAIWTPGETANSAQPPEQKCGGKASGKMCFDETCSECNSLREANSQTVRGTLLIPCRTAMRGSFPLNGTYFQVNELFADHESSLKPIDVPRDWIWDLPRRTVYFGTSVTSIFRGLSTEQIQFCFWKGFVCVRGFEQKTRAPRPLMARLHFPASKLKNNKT
Assay: cleavage_in_vitro
Details: abasic at top position 18; 5mC at bottom position 19; rate reduced approximately 10-fold

For “CTATACCTCCTCAACTCABAICGGTCACCGTCTCCGGCG / CGCCGGAGACGGTGACNGGAGTTGAGGAGGTATAG [abasic 18 opposite meC (MEA-1.6F18AP / MEA-1.6R17meC)]”, the relative cleavage rate (fold rate vs hemimethylated) was 0.1.
